Measurements published in article PMC5576363.

T1: LbuC2c2-WT (Leptotrichia buccalis, UniProt C7NBY4 1-1159)
T1 sequence: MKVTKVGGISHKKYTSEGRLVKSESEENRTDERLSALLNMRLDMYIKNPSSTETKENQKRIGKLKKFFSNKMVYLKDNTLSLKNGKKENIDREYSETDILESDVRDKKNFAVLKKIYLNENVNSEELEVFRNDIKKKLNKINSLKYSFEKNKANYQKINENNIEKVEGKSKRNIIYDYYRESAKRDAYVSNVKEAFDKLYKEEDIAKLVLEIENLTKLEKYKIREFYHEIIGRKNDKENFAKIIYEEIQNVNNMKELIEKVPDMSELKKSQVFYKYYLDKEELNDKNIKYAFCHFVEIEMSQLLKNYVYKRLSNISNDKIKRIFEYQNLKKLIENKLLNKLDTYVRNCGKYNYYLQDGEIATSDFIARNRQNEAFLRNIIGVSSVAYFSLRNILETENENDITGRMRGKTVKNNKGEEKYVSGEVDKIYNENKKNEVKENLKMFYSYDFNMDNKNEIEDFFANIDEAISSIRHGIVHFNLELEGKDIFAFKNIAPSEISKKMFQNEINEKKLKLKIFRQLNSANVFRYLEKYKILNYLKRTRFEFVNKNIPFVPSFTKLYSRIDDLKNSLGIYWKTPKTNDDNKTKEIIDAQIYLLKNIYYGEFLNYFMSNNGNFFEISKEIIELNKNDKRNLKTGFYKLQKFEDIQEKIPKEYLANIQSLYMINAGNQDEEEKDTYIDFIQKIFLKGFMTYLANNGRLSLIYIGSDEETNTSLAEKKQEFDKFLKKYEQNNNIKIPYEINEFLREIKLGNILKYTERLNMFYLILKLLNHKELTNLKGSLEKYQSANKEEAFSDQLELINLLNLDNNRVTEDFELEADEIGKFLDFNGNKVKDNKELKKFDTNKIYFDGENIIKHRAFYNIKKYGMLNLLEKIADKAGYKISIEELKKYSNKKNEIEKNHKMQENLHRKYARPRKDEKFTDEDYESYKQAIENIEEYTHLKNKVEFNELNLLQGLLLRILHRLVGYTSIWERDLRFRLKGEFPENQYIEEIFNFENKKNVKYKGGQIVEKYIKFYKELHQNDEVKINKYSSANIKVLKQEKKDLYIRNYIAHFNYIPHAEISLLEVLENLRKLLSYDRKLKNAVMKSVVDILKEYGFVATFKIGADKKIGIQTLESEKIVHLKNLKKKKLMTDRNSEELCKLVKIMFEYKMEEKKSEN


Target: T1, LbuC2c2-WT
Assay: filter binding

| Binder | Kd [nM] |
| --- | --- |
| mature crRNA-A_GG (crLbu_A_GG_AES432) (structured_RNA) RNA: GGCCACCCCAAAAAUGAAGGGGACUAAAACAGGGGCAGAGAUGAUGACCCU | 27.1 ± 7.5 |
| mature crRNA-A_GA (crLbu_A_mature_GA_SCK340) (structured_RNA) RNA: GACCACCCCAAAAAUGAAGGGGACUAAAACAGGGGCAGAGAUGAUGACCCU | 4.65 ± 0.6 |
